In article PMC2719695, “Structures of native human thymidine phosphorylase and in complex with 5-iodouracil” (Biochemical and Biophysical Research Communications, 2009):

Biological target: the molecule itself
Assay: crystal structure; native hTP without ligand, space group P2(1), 0.1 M Na-acetate pH 5.2, 25% PEG 4000, 0.1 M ammonium acetate; 3.0 Å; four chains in the asymmetric unit

B1: Human thymidine phosphorylase (enzyme)
chain: APPAPGDFSGEGSQGLPDPSPEPKQLPELIRMKRDGGRLSEADIRGFVAAVVNGSAQGAQIGAMLMAIRLRGMDLEETSVLTQALAQSGQQLEWPEAWRQQLVDKHSTGGVGDKVSLVLAPALAACGCKVPMISGRGLGHTGGTLDKLESIPGFNVIQSPEQMQVLLDQAGCCIVGQSEQLVPADGILYAARDVTATVDSLPLITASILSKKLVEGLSALVVDVKFGGAAVFPNQEQARELAKTLVGVGASLGLRVAAALTAMDKPLGRCVGHALEVEEALLCMDGAGPPDLRDLVTTLGGALLWLSGHAGTQAQGAARVAAALDDGSALGRFERMLAAQGVDPGLARALCSGSPAERRQLLPRAREQEELLAPADGTVELVRALPLALVLHELGAGRSRAGEPLRLGVGAELLVDVGQRLRRGTPWLRVHRDGPALSGPQSRALQEALVLSDRAPFAAPSPFAELVLPPQQ
notes: Human thymidine phosphorylase (hTP, EC 2.4.2.4), cDNA clone from the Mammalian Gene Collection; residues 32-480 are seen in the crystals; Homodimer; the His tag is surmised from the Ni2+ column; Native crystal: residues 34-479 in all four copies (32, 33 and 480 in some chains); complex with 5-iodouracil: residues 35-480 in both chains; also called hTP; TP; source: E. coli …
  stoichiometry N: 2
